From patent US11078246B2, “Peptides binding to Bfl-1” (Dana-Farber Cancer Institute, Inc., priority 2015, dated 2021)
Numbering of substitutions follows the chain as printed. Starred links: 1 amine or outer side, 2 acyl side, 3 side chain; linkers in the order of their positions; H or OH if unused. Positions of bridges follow the written chain, without caps; N, C: chain ends. Non-standard residues stand in square brackets, D forms with d. Residues, ends and D or L forms follow the SMILES beside them. No end group written: not given here. *: point of attachment. Nip(3R) = O=C([C@@H]1CCCN([*:1])C1)[*:2]; S5 = C=CCCC[C@](C)(N)C(=O)O; code J = not defined here; Acryloyl = C=CC(=O)*

Columns and labels:
A375P melanoma cells = experiment: Cell viability (CellTiter-Glo); format: cell-based, human; details: 40 μM, over time
Procedure: Cell Viability, LDH Release, and Caspase-3/7 Activation Assays: Cancer cells were cultured using their standard culture media containing 10% FBS and penicillin/streptomycin (A375P: DMEM; SK-MEL-2, SK-MEL-28 and MCF-7: EMEM: A549, H929: RPMI). […] Cell viability and caspase 3/7 activation was measured using CellTiter-Glo and Caspase-Glo 3/7 chemiluminescence reagents (Promega), respectively, and luminescence detected by a microplate reader (Spectramax M5, Molecular Devices). LDH release was quantified after 30 min peptide incubation by plate centrifugation at 1500 rpm for 5 min at 4° C., transfer of 100 μL cell culture media to a clear plate (Corning), incubation with 100 μL LDH reagent (Roche) for 30 min while shaking, and measurement of absorbance at 490 nm on a Spectramax M5 microplate reader. Mitochondrial Cytochrme c Release and Biotinylation Assays: A375P cells were plated in 6-well Corning plates (3×10^5 cells/well) and cultured as above. […] Briefly, pelleted cells were resuspended at 1×10^7 cells/mL in permeabilization buffer (20 mM HEPES/KOH pH 7.5, 250 mM sucrose, 50 mM KCl, 2.5 mM MgCl2) supplemented with 0.025% digitonin and protease inhibitors, followed by incubation on ice for 10 min and centrifugation at 13,000 g.

[1] = test system: mouse embryonic fibroblasts (MEFs); experiment: Cellular uptake by ImageXpress Micro epifluorescence microscopy; format: cell-based; details: FITC-labeled peptides, 4 h; data not shown
A375P cells = experiment: as above; format: cell-based, human; details: FITC-labeled peptides, 4 h; data not shown
Procedure: Confocal Microscopy: A375P cells were plated in chambered coverglass (1.5×10^4 cells/well) and cultured as above. […] Cells were washed, stained with MitoTracker Red (Thermo), Hoescht 33342, and imaged live. Confocal images were collected with a Yokogawa CSU-X1 spinning disk confocal (Andor Technology) mounted on a Nikon Ti-E inverted microscope (Nikon Instruments). Images were acquired using a 100×1.4 NA Plan Apo objective lens with an Orca ER CCD camera (Hamamatsu Photonics) and 488 nm laser. Acquisition parameters, shutters, filter positions and focus were controlled by Andor iQ software (Andor Technology). […] Data were collected for five sites per well at 20× magnification, with each treatment performed in triplicate, and then analyzed and quantified using MetaXpress software. […] A custom module in MetaXpress was applied to incrementally recede the CMDR image mask from the cellular border, further restricting the analyzed FITC signal to internalized peptide. The measurement of Total Internalized Fluorescence Intensity (TIFI) represents the level of absolute fluorescence detected per cell, per peptide construct. Maximum and minimum thresholding was utilized to exclude FITC and Cy5 outliers that were much larger and brighter than average, and total intensity and average intensity per cell thresholds were set such that vehicle-treated cells scored negative by the analysis.

MCL-1ΔNΔC = target: T1, MCL-1ΔNΔC (Homo sapiens, UniProt Q07820); experiment: Covalent conjugation assay of warhead-bearing SAHBs; format: binding
T1 construct: MCL-1ΔNΔC (aa 170-327) and BCL-XLΔC (aa 1-212) constructs were cloned into pGEX-4T-1; GST (N, cleaved yes); made in house; host or cells: Escherichia coli BL21(DE3)
Procedure: Processing for gel electrophoresis and Coomassie staining was performed as above.

BFL-1ΔC [2] = experiment: as above; format: binding, human
Procedure: For warhead-bearing SAHBs, His-BFL-1ΔC C4S/C19S protein was pretreated with 10 mM DTT in 50 mM Tris pH 8.0, 100 mM NaCl for 30 min at RT (final volume, 9.5 μL), and then combined with a 10:1 molar ratio of NOXA SAHBA or BIM SAHBA peptides bearing warheads 1-8 (final volume, 10 μL) for an additional 2 h incubation at RT. Processing for gel electrophoresis and Coomassie staining was performed as above.

BCL-XLΔC = target: T2, BCL-XLΔC (Homo sapiens, UniProt Q07817); experiment: as above; format: binding
T2 construct: MCL-1ΔNΔC (aa 170-327) and BCL-XLΔC (aa 1-212) constructs were cloned into pGEX-4T-1; GST (N, cleaved yes); made in house; host or cells: Escherichia coli BL21(DE3)

GST-MCL-1ΔNΔC = target: T3, GST-MCL-1ΔNΔC (Homo sapiens, UniProt Q07820); experiment: Streptavidin pull-down from anti-apoptotic protein mixture; format: binding; details: 1:1:1:1 mixture, 1 μM each, biotinylated SAHB
T3 construct: MCL-1ΔNΔC (aa 170-327) and BCL-XLΔC (aa 1-212) constructs were cloned into pGEX-4T-1; made in house; host or cells: Escherichia coli BL21(DE3)
Procedure: (§1) Streptavidin Pull-down: Recombinant His-BFL-1ΔC, BCL-XLΔC (tagless) and GST-MCL-1ΔNΔC (1 μM each) were combined and reduced with 3 mM DTT in PBS for 30 min at RT, and then incubated with 1 μM biotinylated SAHBA, SAHBA-3 or vehicle for 4 h at RT. The mixtures were then combined with PBS-washed high-capacity SA agarose (Thermo Fisher Pierce) and incubated with rotation for 2 h at RT. The beads were centrifuged at 3000 rpm, washed twice with NP-40 lysis buffer (1% NP40, 50 mM Tris pH 8.0, 100 mM NaCl, 2.5 mM MgCl2), once with PBS, and then bound protein eluted by boiling in 10% SDS containing 10 mg/mL biotin. Inputs (10%) and eluates were electrophoresed on a 12% Bis-Tris gel and then subjected to silver stain and imaging.

His-BFL-1ΔC = target: T4, His-BFL-1ΔC (Homo sapiens, UniProt Q16548); experiment: as above; format: binding; details: 1:1:1:1 mixture, 1 μM each, biotinylated SAHB; relative to SAHB without warhead
T4 construct: cDNA encoding BFL-1ΔC (aa 1-153) was cloned into the pET19b expression vector; made in house; host or cells: Escherichia coli BL21(DE3) LOBSTR
T4 sequence (Q16548 1-153): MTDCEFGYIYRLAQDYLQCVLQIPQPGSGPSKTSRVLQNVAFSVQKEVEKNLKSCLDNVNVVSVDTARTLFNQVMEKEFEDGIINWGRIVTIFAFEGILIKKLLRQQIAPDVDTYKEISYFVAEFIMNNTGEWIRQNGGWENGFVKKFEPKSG
Procedure: as §1

BFL-1ΔC [3] = target: T5, BFL-1ΔC (Homo sapiens, UniProt Q16548); experiment: Liposomal release assay with SAHBA-3/BFL-1ΔC conjugates; format: biochemical; details: BFL-1ΔC covalently conjugated to the peptide, 1.5 μM
T5 construct: cDNA encoding BFL-1ΔC (aa 1-153) was cloned into the pET19b expression vector; made in house; host or cells: Escherichia coli BL21(DE3) LOBSTR
T5 sequence (Q16548 1-153): T4 sequence (Q16548 1-153)
Procedure: as §1, with “Inputs (10%) and eluates were electrophoresed on a 12% Bis-Tris gel and then subjected to silver stain and imaging.” left out
Large unilamellar vesicles (LUVs) with encapsulated ANTS and DPX were generated and purified as described (Leshchiner et al., 2013; Lovell et al., 2008). The indicated combinations of BAX (400 nM), tBID (40 nM), and BFL-1ΔC or SAHBA-3/BFL-1ΔC conjugates (1.5 μM), were added to liposomes (5 μL) in 384 well plates (final volume, 30 μL), and released fluorophore was measured over 120 min using an M1000 Infinite plate reader (Tecan) with excitation and emission wavelengths of 355 nm and 520 nm, respectively. […] Percent ANTS/DPX release was calculated as [(F−F0)/(F100−F0)]×100, where F0 is baseline fluorescence at time 0, F is the fluorescence recorded for each time point, and F100 is the maximum amount of ANTS/DPX release based on liposomal treatment with 1% Triton X-100.

HA-BFL-1ΔC C4S/C19S = target: T6, HA-BFL-1ΔC C4S/C19S (Homo sapiens, UniProt Q16548, C19S/C4S); experiment: Crosslinking in lysates of transfected 293T cells; format: binding; details: 293T lysate
T6 construct: cDNA encoding BFL-1ΔC (aa 1-153) was cloned into the pET19b expression vector; expressed in transfected cells; host or cells: 293T
T6 sequence (Q16548 1-153 C4S/C19S): T4 sequence (Q16548 1-153) with C4S, C19S
Procedure: 293T cells were maintained in DMEM containing 10% FBS and penicillin/streptomycin, and transfections performed with 2 μg pCMV plasmid containing HA-BFL-1ΔC C4S/C19S using X-tremeGENE 9 (Roche). For lysate experiments, cells were trypsinized 24 hours post-transfection, washed with PBS, and lysed by incubation with 1% CHAPS lysis buffer (150 mM NaCl, 50 mM Tris pH 7.4, 100 mM DTT). Protein concentration of the soluble fraction was measured using a BCA kit according to manufacturer's instructions (Thermo Scientific). […] Samples were then boiled in LDS buffer and subjected to western analysis using 1:1000 dilutions of HA (Sigma-Aldrich. #12CA5) and biotin (Abcam, #53494) antibodies. To evaluate the capacity of biotinylated SAHBs to compete with tBID for interactions with BFL-1 and MCL-1, 293T cells were transfected with either HA-BFL-1ΔC C4S/C19S or FLAG-MCL-1 in the p3XFLAG-CMV-10 vector (Sigma) as above. After 24 h, cells were trypsinized, washed with PBS, lysed in 1% CHAPS buffer, and the supernatant collected for protein concentration determination by BCA kit. […] The mixtures were then subjected to HA or FLAG (Sigma-Aldrich, F7425) immunoprecipitation, followed by western analysis using 1:1000 dilutions of HA, FLAG, biotin, and BID (Santa Cruz sc-11423) antibodies. […] Cells were harvested and lysed as above, and incubated overnight with anti-HA agarose beads (Pierce). […]

T3 sequence (Q07820 170-327, stated change not applied): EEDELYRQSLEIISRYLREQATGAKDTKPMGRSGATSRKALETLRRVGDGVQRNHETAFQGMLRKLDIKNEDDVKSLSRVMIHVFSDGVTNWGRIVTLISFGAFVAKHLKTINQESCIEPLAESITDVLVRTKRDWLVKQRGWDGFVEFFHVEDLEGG
T1 sequence (Q07820 170-327, stated change not applied): as above
T2 sequence (Q07817 1-212, stated change not applied): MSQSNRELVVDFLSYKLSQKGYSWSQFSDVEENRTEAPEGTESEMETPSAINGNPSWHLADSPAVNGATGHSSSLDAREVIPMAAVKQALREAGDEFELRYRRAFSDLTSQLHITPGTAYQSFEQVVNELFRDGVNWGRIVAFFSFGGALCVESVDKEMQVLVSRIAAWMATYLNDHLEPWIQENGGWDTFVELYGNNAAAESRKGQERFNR

C=CC(=O)N1CCC[C@@H](C(=O)N[C@H](C(=O)N[C@@H](C)C(=O)N[C@@H](CCC(N)=O)C(=O)N[C@@H](CCC(=O)O)C(=O)N[C@@H](CC(C)C)C(=O)N[C@@H](CCCNC(=N)N)C(=O)N[C@@]2(C)CCCC=CCCC[C@@](C)(C(=O)N[C@@H](Cc3ccccc3)C(=O)N[C@@H](CC(N)=O)C(=O)N[C@@H](C)C(=O)N[C@@H](Cc3ccc(O)cc3)C(=O)N[C@@H](Cc3ccc(O)cc3)C(=O)N[C@@H](C)C(=O)N[C@@H](CCCNC(=N)N)C(=O)N[C@@H](CCCNC(=N)N)C(N)=O)NC(=O)[C@H](CC(=O)O)NC(=O)CNC(=O)[C@H]([C@@H](C)CC)NC2=O)[C@@H](C)CC)C1 [BIM SAHBA-3] (Acryloyl-[Nip(3R)]IAQELR[S5]IGD[S5]FNAYYARR-NH2; staple 8-12; N-terminus and C-terminus assumed)
cytotoxicity compared to BIM SAHBA1 (A375P melanoma cells): significant enhancement in cytotoxicity over time
cellular uptake [1]: equivalent cellular uptake
cellular uptake (A375P cells): equivalent cellular uptake

NOXA SAHBA-3: NOXA SAHBA (aa 21-43) capped at L21 with D-nipecotic acid acrylamide warhead 3; JEVESATQLRXFGDXLNFRQKLL (SEQ ID NO:24) ([code J]EVESATQLR[S5]FGD[S5]LNFRQKLL; staple 11-15; reading uncertain)
reactivity with MCL-1ΔNΔC (MCL-1ΔNΔC): did not react
reactivity with BFL-1 constructs WT, C4S/C19S, C55S, C4S/C19S/C55S (BFL-1ΔC [2]): exclusive reactivity with the WT and BFL-1 C4S/C19S constructs
reactivity with BCL-XLΔC (BCL-XLΔC): did not react
MCL-1ΔNΔC engagement in SA pull-down (GST-MCL-1ΔNΔC): relatively less
BFL-1ΔC engagement in SA pull-down (His-BFL-1ΔC): notably more
BFL-1ΔC suppression of tBID-triggered BAX-mediated liposomal release (BFL-1ΔC [3]): the inhibitory function of BFL-1 was lost
reactivity with other lysate proteins (biotin western) (HA-BFL-1ΔC C4S/C19S): little to no non-specific reactivity
molecular weight shift of HA-BFL-1ΔC C4S/C19S (anti-HA western) (HA-BFL-1ΔC C4S/C19S; biotinylated peptide 10 μM, 2 h): prominent molecular weight shifts
